Numbering of substitutions follows the chain as printed.
T1: TROP-2 expressed on cells (UniProt P09758 27-323, limits assumed)
T1 sequence (looked up): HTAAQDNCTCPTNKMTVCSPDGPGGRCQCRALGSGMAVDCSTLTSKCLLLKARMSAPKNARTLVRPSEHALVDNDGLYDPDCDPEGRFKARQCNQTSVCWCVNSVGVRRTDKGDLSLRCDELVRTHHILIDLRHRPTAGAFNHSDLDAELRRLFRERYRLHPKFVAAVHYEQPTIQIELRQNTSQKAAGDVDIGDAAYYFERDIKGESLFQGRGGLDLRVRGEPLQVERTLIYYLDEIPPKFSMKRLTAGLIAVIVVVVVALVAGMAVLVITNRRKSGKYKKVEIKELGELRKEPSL

B1: PD3 anti-TROP2 antibody (antibody, human IgG1, kappa, V domains shown)
VH: EVQLVQSGSELKKPGASVKVSCKASGYTFTNYGMNWVKQAPGQGLKWMGWINTYTGEPTYTQDFKGRFAFSLDTSVSTAYLQISSLKAEDTAVYYCARGGFGSSYWYFDVWGQGTLVTVSS
VL: DIQLTQSPSSLSASVGDRVSITCKASQDVSIAVAWYQQKPGKAPKLLIYSASYRYTGVPDRFSGSGSGTDFTLTISSLQPEDFAVYYCQQHYITPLTFGAGTKVEIKR
B2: ADC-5 (PD3-58) (antibody, human IgG1, kappa, V domains shown)
VH: B1 VH
VL: B1 VL
modifications: compound 58 (linker-drug) conjugated after TCEP reduction of the antibody; average n=3.88 per antibody (UV-Vis); sites not stated
B3: TINA antibody (constructed according to WO2015098099A1) (antibody, human IgG1, kappa, V domains shown)
VH: QVQLVQSGAEVKKPGASVKVSCKASGYTFTTAGMQWVRQAPGQGLEWMGWINTHSGVPKYAEDFKGRVTISADTSTSTAYLQLSSLKSEDTAVYYCARSGFGSSYWYFDVWGQGTLVTVSS
VL: B1 VL with L4M, S20T, I31T, D60S, A100Q, V104L
B4: ADC-4 (TINA-58) (antibody, human IgG1, kappa, V domains shown)
VH: B3 VH
VL: B1 VL with L4M, S20T, I31T, D60S, A100Q, V104L
modifications: compound 58 (linker-drug) conjugated after TCEP reduction of the antibody; average n=3.99 per antibody (UV-Vis); sites not stated
B5: ADC-7 (hRS7-9-A) (antibody, human IgG1, kappa, V domains shown)
VH: B1 VH with E1Q, V5Q, Q62D, E89D, Y95F, T115S
VL: B1 VL
modifications: compound 9-A (linker-drug) conjugated after TCEP reduction of the antibody; average n=3.72 per antibody (UV-Vis); sites not stated
B6: hRS7 (control anti-TROP-2 antibody, constructed according to WO03074566) (antibody, human IgG1, kappa, V domains shown)
VH: B1 VH with E1Q, V5Q, Q62D, E89D, Y95F, T115S
VL: B1 VL

Key:
Assay in all cases: cell-based or functional assay
[1] = molecular target: T1, TROP-2 expressed on cells
[2] = molecular target: T1, TROP-2 expressed on cells; remark: listed apart in the source
[3] = molecular target: T1, TROP-2 expressed on cells; remark: listed apart in the source

| Binder | EC50, antibody endocytic activity (DT3C cell killing, CTG) [1] | Emax, antibody endocytic activity (DT3C cell killing, CTG) [1] | EC50, killing activity on Colo205(++) cells [3] | EC50, killing activity on DMS53(++) cells [3] | EC50, killing activity on FaDu(+++) cells [3] | EC50, killing activity on HCC827(+++) cells [3] | Emax, killing activity on Colo205(++) cells [3] | Emax, killing activity on DMS53(++) cells [3] | Emax, killing activity on FaDu(+++) cells [3] | Emax, killing activity on HCC827(+++) cells [3] | Emax, killing activity on SK-OV-3(+) cells [3] | also measured |
| --- | --- | --- | --- | --- | --- | --- | --- | --- | --- | --- | --- | --- |
| B1 | 0.15 nM | 99.1% | – | – | – | – | – | – | – | – | – | – |
| B2 | – | – | – | – | – | – | – | – | – | – | – | EC50, killing activity on Colo205 cells (second parallel assay) [2]: 25.6 nM; EC50, killing activity on DMS53 cells (second parallel assay) [2]: 25.7 nM; EC50, killing activity on FaDu cells (second parallel assay) [2]: 0.14 nM; EC50, killing activity on HCC827 cells (second parallel assay) [2]: 0.13 nM |
| B3 | 0.18 nM | 98.7% | – | – | – | – | – | – | – | – | – | – |
| B4 | – | – | 59.8 nM | 75.6 nM | 0.53 nM | 0.27 nM | 99.7% | 89.8% | 101% | 88.2% | 49.1% | – |
| B5 | – | – | 52.8 nM | 72.9 nM | 0.31 nM | 0.18 nM | 99.5% | 88.7% | 101% | 89.3% | 66.1% | – |
| B6 | 0.18 nM | 98.5% | – | – | – | – | – | – | – | – | – | – |

— patent US20240325564A1, “PHARMACEUTICAL COMPOSITION CONTAINING ANTI-TROP2 ANTIBODY DRUG CONJUGATE AND ITS APPLICATION” (JIANGSU HENGRUI PHARMACEUTICALS CO., LTD., priority 2021, published 2024)
